test: soluble on expression in E. coli; label from the status in PepcDB or PDB records

Question: With “MSSTLRFHVLGRGAALPRAVAPYFVLRTDNWDDFGHRVQFHLILIVSGAPEKRIGSLKVLQRTSDKGEAMMVATDTELPSKFVELDDTFVSLGQDDDFYKKLHEALGDRAGEVLDALRDIAWRPAFASDFEPTPAFRNAMMRENGAQRARRFGRAWALGEQITERPAFDYVGTIEGADIKVEGEFDFSATDPVPGRIVGLIGRNAVGKTRYLASLGSDLAQISRRSAEALEAREARFPGGRPLFTRIIAISYSAFDRFKRPPMDSSSSYVYCGIRNDRGGLSRSALIDRYRLNQVRIRERGEQRSWMRHMKTILGDQGAQLTASLEEEIRSDSTDDSALSSLSSGQSILAHFVTALLAWIQPNSLVLFDEPETHLHPNAVASLFLVLSQVLQEFDSYAVIATHSPVVIQEIPAKRVLVFRREGNVTIAEPLLLESFGESVTELTRHVFETGEVESLYKRTLRELAAEDTVEDVLARFELGLSLSAQAYLLAQYSKKAGGRTLEHHHHHH” as the sequence, how does the “soluble on expression in E. coli” value read?
Answer: not soluble

Question: For “MLPAYIRIHDQIKKEIDEGLWKIGDRLPSERDLAERFEVSRMTLRQAITLLVEEGILERRVGSGTYIASSRVQEKMRGTTSFTEIVKSQGKTPSTKLISYRRVHPSEQEIKFLDIKPKSYIIRMERVRYADDIPVVFEVTAIPEKIIKSFKKEAITKHFFKTLTDHGFVIGKSQQTISASNANEMTADYLAISRGHAVLTLAQVSYFENGMPFEYVRSQYVGERFEFYLENK”, which “soluble on expression in E. coli” value is on record?
Answer: not soluble

Question: For “MHHHHHHSSQEVGEHREITAEETAELLKNSHSVIITPGYGMAVAQAQYPVAEITEKLRARGINVRFGIHPVAGRLPGHMNVLLAEAKVPYDIVLEMDEINDDFADTDTVLVIGANDTVNPAAQDDPKSPIAGMPVLEVWKAQNVIVFKRSMNTGYAGVQNPLFFKENTHMLFGDAKASVDAILKAL”, which “soluble on expression in E. coli” value is on record?
Answer: soluble

Question: With “MIAAYENSKWEPVKWENDMHCAVKIQDKNQWRRGQIIRMVTDTLVEVLLYDVGVELVVNVDCLRKLEENLKTMGRLSL” as the sequence, how does the “soluble on expression in E. coli” value read?
Answer: soluble

Question: Which “soluble on expression in E. coli” value does the source give for “EPLRVLELYSGVGGMHHALRESCIPAQVVAAIDVNTVANEVYKYNFPHTQLLAKTIEGITLEEFDRLSFDMILMSPPCQPFTRIGRQGDMTDSRTNSFLHILDILPRLQKLPKYILLENVKGFEVSSTRDLLIQTIENCGFQYQEFLLSPTSLGIPNSRLRYFLIAKLQSEPLPFQAPGQVLMEFPKIEIHRKNQQDSDLSVKMLKDFLEDDTDVNQYLLPPKSLLRYALLLDIVQPTCRRSVCFTKGYGSYIEGTGSVLQTAEDVQVENIYKSLTNLSQEEQITKLLILKLRYFTPKEIANLLGFPPEFGFPEKITVKQRYRLLGNSLNVHVVAKLIKILYE” here?
Answer: soluble

Question: For “MSLGVKVKVINGGVLISQDLSCAGQVSTSVALPILGACGARPTVLPTAILSTHTGFKDNTYLDLSNEMSRIMSHWQKIDLEFKAIYLGYLGKEALDFWIKNIEQIIRTNQVVLIDPAMADHGKMYRGLDTDYIKKMRQLIFKATILTPNITEAAFLLNEDIPENSLEKAQVLAEKLVQRFAIPNVIITGITLSKDKIGEVGITKEGKWSIIQEKMPGDFFGTGDMFASAFLAAVLYGKNLEKSCAIAAEFVKLAIIDMDQKLESLFGPNYAAGLPWLLSELEKEGHHHHHH”, which “soluble on expression in E. coli” value is on record?
Answer: soluble

Question: Which “soluble on expression in E. coli” value does the source give for “MSLASIRDIARQAEVSPGTVSRVLNNDPTLSVAKETRTRIHQIAQALQYEKVTRKNKRIQIITYASREKEMSDPYYREIRLAIEAEVKRLNLSLKRTIRIDGQQDHIDLNKIENAGAIIVIGNFSVDALNKLKTHNANMVVINNPNTPKSIDAVYSDLDDAMTELLNRILDKGLTKIAYIGGHHTIRELNGITTTNAADVRYQAYQSWCEKHDVEEIVLLNGWGKTQGEDAVKVYLESDHAFPQVFIAGNDMIAIGILQQLQLNKKAIPEEVKLISFNDLEVIQYAVPSISSVHIPVDEFGRTAVRMAEERINNTRQIAIHVVVEAQLKARNTFKVEGHHHHHH” here?
Answer: soluble

Question: Which “soluble on expression in E. coli” value does the source give for “SLQMKNYQQTLKRMSDRSSGFLGVGVHKQKLGIGAIAIVVTDKDGEIVDCEMMSGVTVFSRFKPLTDFVGMSLNECKVLLQNESVDIALHGALKKIEEQMNRKENVTT” here?
Answer: soluble

Question: Which “soluble on expression in E. coli” value does the source give for “MGHHHHHHSHMKEDKEVQTGYMNAQIEIIPCKICGDKSSGIHYGVITCEGCKGFFRRSQQSNATYSCPRQKNCLIDRTSRNRCQHCRLQKCLAVGMSRDAVKFGRMSKKQRDSLYAEVQKHRMQQQQRDHQQQPG” here?
Answer: soluble

Question: Which “soluble on expression in E. coli” value does the source give for “QGGPVEILPYLFLGSCSHSSDLQGLQACGITAVLNVSASCPNHFEGLFRYKSIPVEDNQMVEISAWFQEAIGFIDWVKNSGGRVLVHSQAGISRSATICLAYLMQSRRVRLDEAFDFVKQRRGVISPNFSFMGQLLQFETQVLCH” here?
Answer: soluble

Question: For “MGHHHHHHGGHMSLQRGCDGCKQNQSREPATIDGFMPKAQESIMGQQKQRNRRWVLASRPHGAPVPENFRLEEDDVATPGEGQVLLRTVYLSLDPYMRGRMSDEPSYSPPVDIGGVMVGGTVSRVVESNHPDYQSGDWVLGYSGWQDYDISSGDDLVKLGDHPQNPSWSLGVLGMPGFTAYMGLLDIGQPKEGETLVVAAATGPVGATVGQIGKLKGCRVVGVAGGAEKCRHATEVLGFDVCLDHHADDFAEQLAKACPKGIDIYYENVGGKVFDAVLPLLNTSARIPVCGLVSSYNATELPPGPDRLPLLMATVLKKRIRLQGFIIAQDYGHRIHEFQREMGQWVKEDKIHYREEITDGLENAPQTFIGLLKGKNFGKVVIRVAGDDEGGS”, which “soluble on expression in E. coli” value is on record?
Answer: soluble

Question: With “MKKRYSWEELARAMGIEPQRLENKEARELKKFVDEMTWPTHCNYCQGLDLTNPNPVHHPSYELTPACNHDCIFCYSNVAVKLGKAPKPGYYGWDNPKVITISQYGEPLLSPRIVEVNKMLRKRFPEARLDLQTNGSLLTRELWEKLDFDLVMISLNAADREKHRRIANADTFEQVVNALKIVGEDKSVRSVVRTVFMPGINDEDIPKIAELAASLGIDEMHLQPLTIHELNVERLKKAGLDFERAESIRELLKAAMEAKKYIDVRISGCILVQLKQMDPITLYSVRRVAREVVPLVKRSKLDILEHHHHHH” as the sequence, how does the “soluble on expression in E. coli” value read?
Answer: not soluble

Question: With “MLKVAIAEDDFRVAQIQEEFLSKIKDVTVIGKALNAKETIELLQKEEIDLLLLDNYLPDGIGTDLLPQIHADFPNVDVIMVTAANENYMLEKAIRNGVSNYLIKPVTLEKFVRTIEDYKRKKQLLHSNNEVNQALIDNFFGTSQTQDIKNLPTGVDPLTLQKVKGIIKGFEEGITIEEMGEQMGASRTTARRYLEYLVATNECTVEYKYGIIGRPERKYRIGRGL” as the sequence, how does the “soluble on expression in E. coli” value read?
Answer: not soluble

Question: Which “soluble on expression in E. coli” value does the source give for “ILVKNLPQDSNCQEVHDLLKDYDLKYCYVDRNKRTAFVTLLNGEQAQNAIQMFHQYSFRGKDLIVQLQPTDALLC” here?
Answer: soluble

Question: Which “soluble on expression in E. coli” value does the source give for “MGESGTKSRFPIRVQLEANKQYYWCRCGLSQSQPFCDGAHRGTGMNPVVFVVRETSPVWLCVCKETKNIPFCDCFRTDLEHHHHHH” here?
Answer: not soluble

Question: With “LVLQLQINRNPVLFDFNLQLKTNNFANQTSFDELFNEKTNPLNWQFFSKLKVNHLVYEGNDITQLANTLLQSQFNVLQLDLNKSIYRLNLNAMAQRFEHDWVQPLYAKRTQAKIAY” as the sequence, how does the “soluble on expression in E. coli” value read?
Answer: not soluble

Question: With “MKFLHTADWHIGKKLHGFDLLAEQREAFEQILAIAKEEQVDAVVIAGDLYDRSVPAVEAVEIFNEMMIQMNLKEHFPVLAISGNHDSSTRLETGGPWFNQTQFHLNTRLEQAFQPIEIDNTQFYLLPYFEPIAARLYFEDETIRTIQAAMEKVVAKMQESFLPNKKQVLVSHFFVAGSEKTDSETKLTVGGLDVVPTALLEPFDYVALGHLHGKNALQAPNARYSGSPVKFSLSEMTQEKGVWLVETEAEVHFQFRALKPLRDIQQLTGSFQQLTDPAFYQEVNRENYLHVQLTDRAIIPNMMNQLRKIYPKIIGLERLNGRETSSGNQKKVVQIEQRSPEEHLHDFFNDVTGEALTEQQAQWVQEELSTLNQLERGK” as the sequence, how does the “soluble on expression in E. coli” value read?
Answer: not soluble

Question: For “MAGDPMGSKNESTASKASGTASEKKKIEYLDKTYEVTVPTDKIAITGSVESMEDAKLLDVHPQGAISFSGKFPDMFKDITDKAEPTGEKMEPNIEKILEMKPDVILASTKFPEKTLQKISTAGTTIPVSHISSNWKENMMLLAQLTGKEKKAKKIIADYEQDLKEIKTKINDKAKDSKALVIRIRQGNIYIYPEQVYFNSTLYGDLGLKAPNEVKAAKAQELSSLEKLSEMNPDHIFVQFSDDENADKPDALKDLEKNPIWKSLKAVKEDHVYVNSVDPLAQGGTAWSKVRFLKAAAEKLTQNLEHHHHHH”, which “soluble on expression in E. coli” value is on record?
Answer: soluble

Question: For “MGSDKIHHHHHHMKQPLAHRMRPTNIQEIIGQQHLVGEGKILWRMVQANHFQSMILYGPPGTGKTSIASAIAGSTGTPFRLLNAVTHNKKDMEVVVQEAKMHRHLVLILDEVHRLDKAKQDFLLPHLESGLLTLIGATTSNPFHAINSAIRSRCQIFELHALTEDDLLIGLKRALEDKEKGLGEYDVTVTPEALHHFANASGGDMRSAYNALELAVLSSFTTDDKAAEITLEIAEECLQKKSFVHDKGGDAHYDVLSAFQKSVRGSDVNAALHYLARLIEAGDLQSIGRRLLIMAYEDIGLASPQAGPRTLAAIESAERVGFPEARIPLANAVIELCLSPKSNSAYKALDAALHDLRNGQTGDIPSHLKDSHYKGAEALGRGIGYLYPHDHPNGWVQQQYLPDKIKNKQYYKPKMTGKFEQALSTVYERLQSSNKTKNKG”, which “soluble on expression in E. coli” value is on record?
Answer: not soluble

Question: For “MGSDKIHHHHHHMTLYLGIDTSAYTTSLAIVDEQAELVYENRKILTVPEGERGLAQSAALFQHVQNLPQLVTAVPPQYWEKVSALGVSTAPRPIQESYMPVFLPGYGVAAAMASARCIPLVETSHQEGHLAAGIASSKLKEPHFLAIHISGGTTELLEVHHTQPGKLDIQLLGGTTDLHAGQFVDRVGVRLGLPFPAGKSLEELARQADPGAAAWLPSAVRGFEVSFSGVETAAQRLIDQGKNPADVARAVEGCIVRTLGKLLQAGMEKTTLSEILIVGGVASNQFIRQELKKRLARHANLHWAEPDWSRDNAIGVALLALEKVRGCII”, which “soluble on expression in E. coli” value is on record?
Answer: not soluble

Question: For “MGHHHHHHSHMDCCASRGCSVPTGPATTICSSDKSCRCGVCLPSTCPHTVWLLEPTCCDNCPPPCHIPQPCVPTCFLLNSCQPTPGLETLNLTTFTQPCCEPCLPRGC”, which “soluble on expression in E. coli” value is on record?
Answer: not soluble

Question: Which “soluble on expression in E. coli” value does the source give for “QSALTQPASVSGSPGQSITISCTGTSSDVGGYNYVSWYQQHPGKAPKLMIYGVTNRPSGVSNRFSGSKSGNTASLTISGLQAGDEADYYCSSYTSTRTPYVFGTGTKVEIKRTVAAPSVFIFPPSDEQLKSGTASVVCLLNNFYPREAKVQWKVDNALQSGNSQESVTEQDSKDSTYSLSSTLTLSKADYEKHKVYACEVTHQGLSSPVTKSFNRGEC” here?
Answer: soluble

Question: For “MSLKSFNEIIMKVKSKEMKKVAVAVAQDEPVLEAVRDAKKNGIADAILVGDHDEIVSIALKIGMDVNDFEIVNEPNVKKAALKAVELVSTGKADMVMKGLVNTATFLRSVLNKEVGLRTGKTMSHVAVFETEKFDRLLFLTDVAFNTYPELKEKIDIVNNSVKVAHAIGIENPKVAPICAVEVINPKMPSTLDAAMLSKMSDRGQIKGCVVDGPLALDIALSEEAAHHKGVTGEVAGKADIFLMPNIETGNVMYKTLTYTTDSKNGGILVGTSAPVVLTSRADSHETKMNSIALAALVAGNKEGHHHHHH”, which “soluble on expression in E. coli” value is on record?
Answer: soluble

Question: Which “soluble on expression in E. coli” value does the source give for “MRKAERVRKTNETDIELAFTIDGGGQADIKTDVPFMTHMLDLFTKHGQFDLSINAKGDVDIDDHHTTEDIGICLGQALLEALGDKKGIKRYGSAFVPMDEALAQVVIDLSNRPHLEMRADFPAAKVGTFDTELVHEFLWKLALEARMNLHVIVHYGTNTHHMIEAVFKALGRALDEATTIDPRVKGIPSTKGMLLEHHHHHH” here?
Answer: not soluble

Source: the DeepSol protein solubility set
